The values that follow come from publication PMC3793637 (Nature, 2013).

In series [1] the target is insulin receptor site 1 (Homo sapiens) (UniProt P06213). The note with it: cited from earlier work.
Series [2] concerns the target insulin receptor site 2 (Homo sapiens) (UniProt P06213). Particulars: cited from earlier work.
The series “SEC” deals with the molecule itself. Put plainly: SEC.
The series “crystal structure” concerns the molecule itself. Put plainly: crystal structure.

As a reminder, the Kd is the constant that tells how readily two partners part at equilibrium. As a reminder, the stoichiometry N is the number of molecules, sites or subunits per partner or assembly.

Chain of insulin receptor site 1 (Homo sapiens) (P06213 763-956): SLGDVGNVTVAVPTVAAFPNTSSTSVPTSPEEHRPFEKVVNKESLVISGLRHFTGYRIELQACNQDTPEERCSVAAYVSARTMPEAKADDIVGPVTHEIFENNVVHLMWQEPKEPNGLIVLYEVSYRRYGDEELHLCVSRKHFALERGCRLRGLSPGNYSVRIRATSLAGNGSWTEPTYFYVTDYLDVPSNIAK
Chain of insulin receptor site 2 (Homo sapiens) (P06213 763-956): as above

insulin (from UniProt P01308): the Kd in series [1] was 0.0064 µM; in series [2], 0.4 µM.

B1: IR593.αCT (domain or fragment, human, UniProt P06213 28-620, looked up)
chain: HLYPGEVCPGMDIRNNLTRLHELENCSVIEGHLQILLMFKTRPEDFRDLSFPKLIMITDYLLLFRVYGLESLKDLFPNLTVIRGSRLFFNYALVIFEMVHLKELGLYNLMNITRGSVRIEKNNELCYLATIDWSRILDSVEDNYIVLNKDDNEECGDICPGTAKGKTNCPATVINGQFVERCWTHSHCQKVCPTICKSHGCTAEGLCCHSECLGNCSQPDDPTKCVACRNFYLDGRCVETCPPPYYHFQDWRCVNFSFCQDLHHKCKNSRRQGCHQYVIHNNKCIPECPSGYTMNSSNLLCTPCLGPCPKVCHLLEGEKTIDSVTSAQELRGCTVINGSLIINIRGGNNLAAELEANLGLIEEISGYLKIRRSYALVSLSFFRKLRLIRGETLEIGNYSFYALDNQNLRQLWDWSKHNLTITQGKLFFHYNPKLCLSEIHKMEEVSGTKGRQERNDIALKTNGDQASCENELLKFSYIRTSFDKILLRWEPYWPPDFRDLLGFMLFYKEAPYQNVTEFDGQDACGSNSWTVVDIDPPLRSNDPKSQNHPGWLMRGLKPWTQYAIFVKTLVTFSDERRTYGAKSDIIYVQTDATTFEDYLHNVVFVPRPS
Consider B1, for which the “stoichiometry N” value was determined as 2 in the series “SEC” and 4 in “crystal structure”.
